Literature values, collected in paper PMC7380111.

Legend:
[1] = molecular target: NRP2 (Homo sapiens) (UniProt O60462)
[2] = molecular target: NRP1 (Homo sapiens) (UniProt O14786)
Chain of UniProt O14786 (O14786 22-923): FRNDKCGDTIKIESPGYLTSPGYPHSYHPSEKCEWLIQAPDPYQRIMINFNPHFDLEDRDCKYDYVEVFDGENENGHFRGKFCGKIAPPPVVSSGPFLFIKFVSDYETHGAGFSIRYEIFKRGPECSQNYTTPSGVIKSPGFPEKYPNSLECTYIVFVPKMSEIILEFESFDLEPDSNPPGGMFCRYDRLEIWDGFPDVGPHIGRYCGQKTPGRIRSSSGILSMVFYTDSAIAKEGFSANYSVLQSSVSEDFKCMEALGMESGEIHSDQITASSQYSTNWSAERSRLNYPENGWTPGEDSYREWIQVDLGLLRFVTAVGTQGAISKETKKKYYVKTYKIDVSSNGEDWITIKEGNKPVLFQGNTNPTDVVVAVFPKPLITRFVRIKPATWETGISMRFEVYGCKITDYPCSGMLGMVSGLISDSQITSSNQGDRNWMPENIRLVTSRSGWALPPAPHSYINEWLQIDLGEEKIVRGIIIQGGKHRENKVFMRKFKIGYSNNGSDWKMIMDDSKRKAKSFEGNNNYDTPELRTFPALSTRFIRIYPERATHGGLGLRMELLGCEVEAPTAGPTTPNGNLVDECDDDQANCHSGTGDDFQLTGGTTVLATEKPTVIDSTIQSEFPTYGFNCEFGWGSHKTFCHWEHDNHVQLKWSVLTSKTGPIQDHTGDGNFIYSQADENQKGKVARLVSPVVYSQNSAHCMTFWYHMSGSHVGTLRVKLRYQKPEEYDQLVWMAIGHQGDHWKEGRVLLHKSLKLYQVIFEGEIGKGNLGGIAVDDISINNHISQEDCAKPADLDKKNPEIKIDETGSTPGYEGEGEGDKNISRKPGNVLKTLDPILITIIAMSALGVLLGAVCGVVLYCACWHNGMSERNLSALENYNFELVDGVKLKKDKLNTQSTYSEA

Chain of UniProt O60462 (O60462 21-931): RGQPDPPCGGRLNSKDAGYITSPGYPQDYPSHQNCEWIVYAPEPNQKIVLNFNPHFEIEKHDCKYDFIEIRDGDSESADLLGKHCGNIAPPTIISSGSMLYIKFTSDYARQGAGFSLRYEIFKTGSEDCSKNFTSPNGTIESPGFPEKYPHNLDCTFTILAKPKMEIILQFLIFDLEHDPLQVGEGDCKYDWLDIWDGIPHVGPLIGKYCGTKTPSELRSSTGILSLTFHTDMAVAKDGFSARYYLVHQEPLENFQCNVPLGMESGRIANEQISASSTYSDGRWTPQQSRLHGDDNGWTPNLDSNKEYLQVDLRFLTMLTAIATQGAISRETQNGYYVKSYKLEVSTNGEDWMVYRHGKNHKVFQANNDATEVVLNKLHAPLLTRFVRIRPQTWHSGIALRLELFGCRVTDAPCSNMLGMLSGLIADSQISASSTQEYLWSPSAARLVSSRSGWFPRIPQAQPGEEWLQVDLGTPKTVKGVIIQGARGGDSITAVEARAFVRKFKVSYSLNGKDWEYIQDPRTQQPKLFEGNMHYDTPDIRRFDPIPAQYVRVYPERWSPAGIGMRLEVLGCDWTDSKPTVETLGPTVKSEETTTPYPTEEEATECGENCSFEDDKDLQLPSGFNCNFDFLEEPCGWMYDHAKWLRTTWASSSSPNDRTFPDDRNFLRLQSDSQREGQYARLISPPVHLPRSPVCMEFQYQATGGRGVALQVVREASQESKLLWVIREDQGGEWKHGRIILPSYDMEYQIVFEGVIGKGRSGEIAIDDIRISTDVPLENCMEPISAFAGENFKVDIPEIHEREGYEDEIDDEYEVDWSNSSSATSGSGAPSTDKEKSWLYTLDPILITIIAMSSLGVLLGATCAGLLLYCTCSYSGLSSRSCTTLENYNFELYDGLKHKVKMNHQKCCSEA

Kd [1]: 5 nM | Kd [2]: 0.2 nM
Substance: VEGF165 (from UniProt P15692)
